Literature values as cited in patent US20230192878A1, “METHODS, THERAPIES AND USES FOR TREATING CANCER” (PFIZER INC., priority 2020, published 2023).

Biological target: T1, BCMA (Homo sapiens, UniProt Q02223)
T1 sequence (Q02223 1-184): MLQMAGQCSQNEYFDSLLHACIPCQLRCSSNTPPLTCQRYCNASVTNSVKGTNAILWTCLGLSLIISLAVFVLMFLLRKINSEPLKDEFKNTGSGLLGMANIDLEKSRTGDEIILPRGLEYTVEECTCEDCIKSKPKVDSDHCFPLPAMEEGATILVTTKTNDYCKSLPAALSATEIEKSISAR
Settings: binding to BCMA; read-out: affinity; cited from earlier work

In the case of “APRIL: a proliferation-inducing ligand, ligand of BCMA”, the Kd is listed as 16 nM.

In the case of “BAFF: B-cell activation factor, ligand of BCMA”, the Kd is listed as 1000 nM.
